In the data set the test system is CytR DNA-binding domain. Description: fluorescence anisotropy. The note with it: Stopped-flow kinetics: 50 mM sodium phosphate, 30 mM NaCl, 1 mM EDTA, pH 6.0, 278 K, 300 nM Alexa-532 udp half-site, equilibrium isotherms at 293 K (buffer not …). (In fluorescence polarisation assays a small probe gives low polarisation when free and higher when bound to something large.)

For PurR binding site (PurFO), where the note is “293 K, first of two overlapping titration profiles (K1/2,1)”, the K half stood at 0.4 µM. For the substance random DNA (Poly-AC DNA), the K half (293 K, similar affinity to udp half-site) is 10 µM. In the case of udp half-site (Udp-Half), the K half worked out at 10 µM.

The record behind these values is article PMC6158747.
